This note sets out measurements from patent US20240400715A1 (VIBRANT PHARMA, published 2024).

Changes are numbered by the printed parent chain. Where “and” joins values, the source holds several entries; their conditions need not be identical. Equal values may be shown once.

The target of assay [1] is T1, human CD3ε/δ (ACRO systems, CDD-H52W1) (human, UniProt P07766 23-126; P04234 22-105).
T1 construct: bought recombinant heterodimer; also called human CD3 epsilon/delta; Human CD3ε/CD3δ
As to the kind of experiment: BLI, antibody captured on AHC sensor, 30 C. In general terms: Biolayer interferometry detects binding as a change in optical thickness at a sensor tip.

Assay [2] deals with T2, human CD3 on Jurkat cells (human, UniProt P07766 23-207; P04234 22-171; P09693 23-182).
T2 construct: whole, on cells; CD3 complex as on Jurkat (Clone E6-1) cells; also called CD3 expressing cells (Jurkat)
As to the kind of experiment: FACS, Jurkat cells.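 Note: flow cytometric binding of bispecific antibodies to Jurkat T cells, threefold serial dilutions incubated half an hour in the cold, EC50 taken from the fitted binding curve.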
Experimental: The binding of the bispecific antibodies was tested on the CA expressing human lung adenocarcinoma cell line (H1573) and the CD3 expressing immortalized T lymphocyte line (Jurkat). The steps are as follows: the cells were harvested, counted, and resuspended in FACS buffer (PBS containing 0.1% BSA) at 2×10⁶ cells/ml. 100 μl of cell suspension was incubated in a V-bottom 96-well plate at 4° C. with 3-fold serial dilutions of bispecific antibodies (20 μg/ml-0.009 μg/ml) for 30 minutes; washed twice with pre-cooled FACS buffer. […] GraphPadPrism was used to obtain the binding curve.

Assay [3] has as its target T3, human CD3ε/δ (ACRO systems, CDD-H52W1) (human, UniProt P07766 23-126; P04234 22-105).
T3 construct: Bought protein; also called human CD3ϵ/CD3δ; human CD3 epsilon/delta antigen
The assay is described as follows: BLI, antibody captured, antigen in solution.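 Note: bispecific antibodies captured on AHIC biosensors to a 1.5 nm loading signal, in PBST with 0.02% detergent.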
Experimental: The bispecific antibodies were diluted to 5 ag/ml, and 1.5 nm protein was coupled to the surface of the AHIC sensor chip through 0.02% PBST.

Assay [4] has as its target T1, human CD3ε/δ (ACRO systems, CDD-H52W1). The assay is described as follows: serum-stability ELISA, Day 1 vs Day 0.
Experimental: (§1) The samples to be tested were centrifuged at 4° C. at 12000 rpm for 30 minutes to remove the precipitate. 200 μl of each sample to be tested (0.5 mg/ml) was collected in a 1.5 ml Eppendorf tube. An equal volume of human serum (GEMINI, H2OYOOK) was added, mixed thoroughly, and the mixture was incubated in a 37° C. constant temperature CO₂ incubator. For a total of 10 days, 40 μl samples was aspirated every day and stored at −20° C.
(§2) Enzyme-linked immunosorbent assay (ELISA) was used to test the bispecific antibodies' binding to human CEA and human CD3 epsilon/delta antigen. The steps are as follows: the antigen human CD3ε/δ (ACRO systems, CDD-H52W1) and the recombinant tumor antigen human CEA (CEACAM-5/CD66e, ACRO systems, CE5-H5226) were diluted to 1 μg/ml with PBS, and then added to the 96-well plate at 100 μl per well. The wells were coated overnight at 4° C. After washing 3 times with 0.05% PBST, 200 μl 5% skimmed milk powder was added to each well and incubated at 37° C. for 2 h. After washing 3 times with 0.05% PBST, 100 μl primary antibody sample (10 μg/ml) was added to each well, and incubated at 37° C. for 2 h. After washing 3 times with 0.05% PBST, 100 μl (1:6000) diluted secondary antibody goat anti-human Fc-HRP (sigma, A2170) was added to each well, incubated at room temperature for 1 h. After washing 8 times with 0.05% PBST, 50 μl TMB color developing solution was added to each well, and incubated at room temperature for 10-15 min. 50 μl 1 mM HCl was added to each well to stop the color development. 450 nm Absorbance (OD) was read.
(§3) The binding of antibodies to antigen was calculated according to the following formula: Binding (%)=[(ODdayn−ODb)/(ODday0−ODb)]×100%. ODdayn: experimental well (the protein was stored in the serum for n days); ODday0: control well (the protein was not stored in the serum); ODb: blank well (no primary antibody added).
Assay [5] shares this target. As to the kind of experiment: serum-stability ELISA, Day 9 vs Day 0.
Experimental: as §1, §2, §3
Assay [6] shares this target. The assay is described as follows: serum-stability ELISA, Day 5 vs Day 0. A general note: An ELISA detects its analyte on a solid surface through an enzyme-linked reagent.
Experimental: as §1, §2, §3
For assay [7] the target is unchanged. The assay is described as follows: serum-stability ELISA, Day 7 vs Day 0.
Experimental: as §1, §2, §3
The target is the same in assay [8]. As to the kind of experiment: serum-stability ELISA, Day 10 vs Day 0.
Experimental: as §1, §2, §3
Assay [9] shares this target. As to the kind of experiment: serum-stability ELISA, Day 0 (reference).
Experimental: as §1, §2, §3
Assay [10] has the same target. The assay is described as follows: serum-stability ELISA, Day 6 vs Day 0.
Experimental: as §1, §2, §3
Assay [11] has the same target. As to the kind of experiment: serum-stability ELISA, Day 2 vs Day 0.
Experimental: as §1, §2, §3

B1: HER2-CD3 bispecific antibody 501 (bispecific antibody, human IgG4 S228P, kappa, F234A L235A)
heavy: EVKLLESGGGLVQPKGSLKLSCAASGFTFNTYAMNWVRQAPGKGLEWVARIRSKYNNYATYYADSVKDRFTISRDDSQSILYLQMNNLKTEDTAMYYCVRHGNFGNSYVSWFAYWGQGTLVTVSSASTKGPSVFPLAPCSRSTSESTAALGCLVKDYFPEPVTVSWNSGALTSGVHTFPAVLQSSGLYSLSSVVTVPSSSLGTKTYTCNVDHKPSNTKVDKRVESKYGPPCPPCPAPEAAGGPSVFLFPPKPKDTLMISRTPEVTCVVVDVSQEDPEVQFNWYVDGVEVHNAKTKPREEQFNSTYRVVSVLTVLHQDWLNGKEYKCKVSNKGLPSSIEKTISKAKGQPREPQVYTLPPCQEEMTKNQVSLWCLVKGFYPSDIAVEWESNGQPENNYKTTPPVLDSDGSFFLYSRLTVDKSRWQEGNVFSCSVMHEALHNHYTQKSLSLSL
chain: QVQLVQSGGGLVQAGGSLRLSCAASGRTFSSYAMAWFRQAPGKEREFVAAISWSGANIYVADSVKGRFTISRDNAKDTVYLQMNSLKPEDTAVYYCAVKLGFAPVEERQYDYWGQGTQVTVSSESKYGPPCPPCPAPEAAGGPSVFLFPPKPKDTLMISRTPEVTCVVVDVSQEDPEVQFNWYVDGVEVHNAKTKPREEQFNSTYRVVSVLTVLHQDWLNGKEYKCKVSNKGLPSSIEKTISKAKGQPREPQVCTLPPSQEEMTKNQVSLSCAVKGFYPSDIAVEWESNGQPENNYKTTPPVLDSDGSFFLVSRLTVDKSRWQEGNVFSCSVMHEALHNRFTQKSLSLSL
light: QAVVTQESALTTSPGETVTLTCRSSTGAVTTSNYANWVQEKPDHLFTGLIGGTNKRAPGVPARFSGSLIGDKAALTITGAQTEDEAIYFCALWYSNLWVFGGGTKVEIKRTVAAPSVFIFPPSDEQLKSGTASVVCLLNNFYPREAKVQWKVDNALQSGNSQESVTEQDSKDSTYSLSSTLTLSKADYEKHKVYACEVTHQGLSSPVTKSFNRGEC
notes: VHH-hole chain assembled from VHH and hole-Fc with hinge
In assay [1], B1 returned a Kd of 3.14 nM, a koff of 0.000508 s⁻¹ and a kon of 162000 M⁻¹ s⁻¹.

B2: Knob+Fab-Hole-CEA (106) (bispecific antibody, human IgG4 S228P, kappa, F234A L235A)
chain: ESKYGPPCPPCPAPEAAGGPSVFLFPPKPKDTLMISRTPEVTCVVVDVSQEDPEVQFNWYVDGVEVHNAKTKPREEQFNSTYRVVSVLTVLHQDWLNGKEYKCKVSNKGLPSSIEKTISKAKGQPREPQVYTLPPCQEEMTKNQVSLWCLVKGFYPSDIAVEWESNGQPENNYKTTPPVLDSDGSFFLYSRLTVDKSRWQEGNVFSCSVMHEALHNHYTQKSLSLSL
heavy: EVKLLESGGGLVQPKGSLKLSCAASGFTFNTYAMNWVRQAPGKGLEWVARIRSKYNNYATYYADSVKDRFTISRDDSQSILYLQMNNLKTEDTAMYYCVRHGNFGNSYVSWFAYWGQGTLVTVSSASTKGPSVFPLAPCSRSTSESTAALGCLVKDYFPEPVTVSWNSGALTSGVHTFPAVLQSSGLYSLSSVVTVPSSSLGTKTYTCNVDHKPSNTKVDKRVESKYGPPCPPCPAPEAAGGPSVFLFPPKPKDTLMISRTPEVTCVVVDVSQEDPEVQFNWYVDGVEVHNAKTKPREEQFNSTYRVVSVLTVLHQDWLNGKEYKCKVSNKGLPSSIEKTISKAKGQPREPQVCTLPPSQEEMTKNQVSLSCAVKGFYPSDIAVEWESNGQPENNYKTTPPVLDSDGSFFLVSRLTVDKSRWQEGNVFSCSVMHEALHNRFTQKSLSLSLGGGGSGGGGSEVQLVESGGGFVQAGESLTLSCTSSTLTFTPYRMAWYRQAPGKQRDLVADISSGDGRTTNYADFAKGRFTISRDNIKNTVFLRMTNLKPEDTAVYYCNTFVSFVGIARSWGQGTQVTVSS
light: B1 light
notes: Anti-CD3 TA1 Fab + anti-CEA VHH C17 on human IgG4 knob-into-hole Fc
Turning to B2, the EC50 in assay [2] is 0.69 µg/mL and 5.31 nM. In assay [3], this molecule came in with a Kd of 0.589 nM, a koff of 0.000215 s⁻¹ and a kon of 366000 M⁻¹ s⁻¹.

B3: 101 (Fab-Knob+CEA-Hole) (bispecific antibody, human IgG4 S228P, kappa, F234A L235A)
heavy: B1 heavy
chain: EVQLVESGGGFVQAGESLTLSCTSSTLTFTPYRMAWYRQAPGKQRDLVADISSGDGRTTNYADFAKGRFTISRDNIKNTVFLRMTNLKPEDTAVYYCNTFVSFVGIARSWGQGTQVTVSSESKYGPPCPPCPAPEAAGGPSVFLFPPKPKDTLMISRTPEVTCVVVDVSQEDPEVQFNWYVDGVEVHNAKTKPREEQFNSTYRVVSVLTVLHQDWLNGKEYKCKVSNKGLPSSIEKTISKAKGQPREPQVCTLPPSQEEMTKNQVSLSCAVKGFYPSDIAVEWESNGQPENNYKTTPPVLDSDGSFFLVSRLTVDKSRWQEGNVFSCSVMHEALHNRFTQKSLSLSL
light: B1 light
notes: TA1 anti-CD3 Fab, C17 anti-CEA VHH, human IgG4 Fc knob-into-hole
For B3, the Binding % stood at 98.5% in assay [4]; 102% in [5]; 99.2% in assay [6]; 100% in assay [7]; 101% in assay [8]; 100% in assay [9]. Also, the values for the Binding % in [10] and in [11] were 103% and 101%, respectively.

B4: 103 (Fab-Knob+Hole-CEA) (bispecific antibody, human IgG4 S228P, kappa, F234A L235A)
heavy: B1 heavy
chain: ESKYGPPCPPCPAPEAAGGPSVFLFPPKPKDTLMISRTPEVTCVVVDVSQEDPEVQFNWYVDGVEVHNAKTKPREEQFNSTYRVVSVLTVLHQDWLNGKEYKCKVSNKGLPSSIEKTISKAKGQPREPQVCTLPPSQEEMTKNQVSLSCAVKGFYPSDIAVEWESNGQPENNYKTTPPVLDSDGSFFLVSRLTVDKSRWQEGNVFSCSVMHEALHNRFTQKSLSLSLGGGGSGGGGSEVQLVESGGGFVQAGESLTLSCTSSTLTFTPYRMAWYRQAPGKQRDLVADISSGDGRTTNYADFAKGRFTISRDNIKNTVFLRMTNLKPEDTAVYYCNTFVSFVGIARSWGQGTQVTVSS
light: B1 light
notes: TA1 Fab, C17 VHH, IgG4 Fc KIH
Consider B4, for which the Binding % in assay [4] worked out at 101%; in assay [5], 103%; in assay [6], 105%; in assay [7], 107%; in assay [8] it was 100%; in assay [9] it was 100%. Also, the Binding % in [10] was determined as 105%; in [11], 106%.

B5: HER2-CD3 bispecific antibody 504 (bispecific antibody, human IgG4 S228P, kappa, F234A L235A)
chain: B1 chain with C254Y, S259C, S271W, A273L, V312Y, R340H, F341Y
heavy: B1 heavy with Y354C, C359S, W371S, L373A, Y412V, H440R, Y441F
light: B1 light
notes: VHH-knob chain assembled from VHH and knob-Fc with hinge
On to B5, for which, in assay [1], binding was characterised by a dissociation constant (Kd) of 2.79 nM, the koff was determined as 0.0005 s⁻¹ and the kon worked out at 179000 M⁻¹ s⁻¹.

B6: 102 (Fab-Knob-CEA+Hole) (bispecific antibody, human IgG4 S228P, kappa, F234A L235A)
heavy: B2 heavy with C354Y, S359C, S371W, A373L, V412Y, R440H, F441Y
chain: B2 chain with Y131C, C136S, W148S, L150A, Y189V, H217R, Y218F
light: B1 light
notes: TA1 Fab, C17 VHH, IgG4 Fc KIH
For B6, the Binding % in [4] stood at 106%; in [5], 100%; in assay [6] it was 108%; in assay [7], 105%; in assay [8], 102%; in assay [9] it was 100%. Besides, the Binding % was determined as 110% in assay [10] and 111% in assay [11].

By Kd is commonly meant the constant that tells how readily two partners part at equilibrium. One may read the koff as the rate constant with which the complex falls apart. The low end stands for slow dissociation, the high end for fast dissociation. Usually kon stands for the rate constant with which the complex forms. A higher kon goes with fast association. The term EC50 denotes the concentration at which the effect is half-maximal.
